Reference: paper PMC6086316, “Interactions between the Aggregatibacter actinomycetemcomitans secretin HofQ and host cytokines indicate a link between natural competence and interleukin-8 uptake” (Virulence, 2018)

B1: emHofQ_L1 (H136A, F137A, K139A) (domain or fragment)
chain: QNPVFSIRLKQAPLVPTLQQLALAHNTNLIIDDELQGTVSLQLENVDLDQLFRSVAKIKQLDLWQENGIYYFTKGDTNTKFAGKMEEPFPLSLPMAEEPAQLNTATIKLAAAAASEVMKSLTGGSGSLLSPNGSITFDDRSNLLLIQDEPRSVRNIKKLIKELDKPIEQ
notes: they already carry the substitutions; Secretin HofQ of Aggregatibacter actinomycetemcomitans, extramembranous domain, residues 27-195; The printed gene begins with ATG (Met, in the NdeI site) and ends with CTC GAG (Leu-Glu, XhoI site) before the His tag of pET36b; also called emHofQ mutant L1; source: E. coli BL21 CodonPlus (DE3) RIL, induced overnight at 16°C, purified (HisTrap, size-exclusion …)
B2: emHofQ_L1L2 (H136A, F137A, K139A, D165A, R166A) (domain or fragment)
chain: QNPVFSIRLKQAPLVPTLQQLALAHNTNLIIDDELQGTVSLQLENVDLDQLFRSVAKIKQLDLWQENGIYYFTKGDTNTKFAGKMEEPFPLSLPMAEEPAQLNTATIKLAAAAASEVMKSLTGGSGSLLSPNGSITFDAASNLLLIQDEPRSVRNIKKLIKELDKPIEQ
notes: they already carry the substitutions; Secretin HofQ of Aggregatibacter actinomycetemcomitans, extramembranous domain, residues 27-195; The printed gene begins with ATG (Met, in the NdeI site) and ends with CTC GAG (Leu-Glu, XhoI site) before the His tag of pET36b; also called emHofQ mutant L1L2; source: E. coli BL21 CodonPlus (DE3) RIL, induced overnight at 16°C, purified (HisTrap, size-exclusion …)
B3: emHofQ_L2 (D165A, R166A) (domain or fragment)
chain: QNPVFSIRLKQAPLVPTLQQLALAHNTNLIIDDELQGTVSLQLENVDLDQLFRSVAKIKQLDLWQENGIYYFTKGDTNTKFAGKMEEPFPLSLPMAEEPAQLNTATIKLHFAKASEVMKSLTGGSGSLLSPNGSITFDAASNLLLIQDEPRSVRNIKKLIKELDKPIEQ
notes: they already carry the substitutions; Secretin HofQ of Aggregatibacter actinomycetemcomitans, extramembranous domain, residues 27-195; The printed gene begins with ATG (Met, in the NdeI site) and ends with CTC GAG (Leu-Glu, XhoI site) before the His tag of pET36b; also called emHofQ mutant L2; source: E. coli BL21 CodonPlus (DE3) RIL, induced overnight at 16°C, purified (HisTrap, size-exclusion …)

The binders below were run against T1, human mature interleukin-1β (IL-1β, amino acids 117-269) (human) (assay: time-resolved fluorometric immunoassay (TRFIA); 60 pmol IL-8 or IL-1β coated on wells; emHofQ wild type and mutants 5 nM-2 μM, 4°C overnight; Eu-N1 anti-6xHis antibody; apparent Kd). Conditions: both partners purified.
T1 construct: Human mature IL-1β, amino acids 117-269; Expressed from pET-28bTEV; source: E. coli BL21 CodonPlus (DE3) RIL, purified (HisTrap, TEV cleavage, size-exclusion chromatography); not shown: His6, N-terminal, cleaved
T1 sequence (chain, as listed by the source): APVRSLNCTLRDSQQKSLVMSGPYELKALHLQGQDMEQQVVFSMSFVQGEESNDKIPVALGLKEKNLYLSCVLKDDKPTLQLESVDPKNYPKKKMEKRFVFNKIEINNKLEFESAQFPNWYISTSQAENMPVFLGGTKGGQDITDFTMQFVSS

For B1, which Kd is on record?
The Kd was 450 ± 160 nM.

For B2, which Kd is on record?
The Kd was 440 ± 70 nM.

How did the Kd turn out when B3 was run?
Its Kd is 330 ± 70 nM.
